Measured values taken from publication PMC3690555 (Biochemistry, 2009).
One block for each molecule: values may come before it.

Assays:
[1] = target: Y9F-NiSOD (Streptomyces coelicolor); test: SEC + native MS
[2] = target: Y9F-NiSOD (Streptomyces coelicolor); test: crystal structure
[3] = target: Y9FY62F-NiSOD (Streptomyces coelicolor); test: SEC + native MS
[4] = target: Y62F-NiSOD (Streptomyces coelicolor); test: SEC + native MS
[5] = target: D3A-NiSOD (Streptomyces coelicolor); test: SEC + native MS
[6] = target: D3A-NiSOD (Streptomyces coelicolor); test: crystal structure
[7] = target: the molecule itself; test: SEC + native MS

Molecule: D3A-NiSOD (enzyme)
- stoichiometry N [5]: 6
- stoichiometry N [6]: 6

B1: WT-NiSOD, recombinant nickel-dependent superoxide dismutase from Streptomyces coelicolor (enzyme, UniProt P80735 15-131, looked up)
chain: HCDLPCGVYDPAQARIEAESVKAVQEKMAGNDDPHFQTRATVIKEQRAELAKHHVSVLWSDYFKPPHFEKYPELHQLVNDTLKALSAAKGSKDPATGQKALDYIAQIDKIFWETKKA
- stoichiometry N [7]: 6

The next lines start with the values.

- stoichiometry N [1]: 6
- stoichiometry N [2]: 6
Molecule: Y9F-NiSOD (enzyme)

- stoichiometry N [3]: 6
Molecule: Y9FY62F-NiSOD (enzyme)

- stoichiometry N [4]: 6
Molecule: Y62F-NiSOD (enzyme)
